# According to IntAct's records for PubMed 31515488:
# B1: Circadian locomoter output cycles protein kaput (Homo sapiens), O15516 (parent)
# chain: MLFTVSCSKMSSIVDRDDSSIFDGLVEEDDKDKAKRVSRNKSEKKRRDQFNVLIKELGSMLPGNARKMDKSTVLQKSIDFLRKHKEITAQSDASEIRQDWKPTFLSNEEFTQLMLEALDGFFLAIMTDGSIIYVSESVTSLLEHLPSDLVDQSIFNFIPEGEHSEVYKILSTHLLESDSLTPEYLKSKNQLEFCCHMLRGTIDPKEPSTYEYVKFIGNFKSLNSVSSSAHNGFEGTIQRTHRPSYEDRVCFVATVRLATPQFIKEMCTVEEPNEEFTSRHSLEWKFLFLDHRAPPIIGYLPFEVLGTSGYDYYHVDDLENLAKCHEHLMQYGKGKSCYYRFLTKGQQWIWLQTHYYITYHQWNSRPEFIVCTHTVVSYAEVRAERRRELGIEESLPETAADKSQDSGSDNRINTVSLKEALERFDHSPTPSASSRSSRKSSHTAVSDPSSTPTKIPTDTSTPPRQHLPAHEKMVQRRSSFSSQSINSQSVGSSLTQPVMSQATNLPIPQGMSQFQFSAQLGAMQHLKDQLEQRTRMIEANIHRQQEELRKIQEQLQMVHGQGLQMFLQQSNPGLNFGSVQLSSGNSSNIQQLAPINMQGQVVPTNQIQSGMNTGHIGTTQHMIQQQTLQSTSTQSQQNVLSGHSQQTSLPSQTQSTLTAPLYNTMVISQPAAGSMVQIPSSMPQNSTQSAAVTTFTQDRQIRFSQGQQLVTKLVTAPVACGAVMVPSTMLMGQVVTAYPTFATQQQQSQTLSVTQQQQQQSSQEQQLTSVQQPSQAQLTQPPQQFLQTSRLLHGNPSTQLILSAAFPLQQSTFPQSHHQQHQSQQQQQLSRHRTDSLPDPSKVQPQ
# B2: Isoform 1 of EF-hand domain-containing family member C2 (Homo sapiens), Q5JST6-1 (parent)
# chain: MALPLLPGNSFNRNVGKEKFHKSQHWGFCNNVMMLVSDEKPGIGGEPLLGQKIKPKCSIYPKGDGSDVPSWVAFDKQVLSFDAYLEEEVLDKSQTNYRIRYYKIYFYPEDDTIQVNEPEVKNSGLLQGTSIRRHRITLPPPDEDQFYTVYHFNVGTEVVFYGRTFKIYDCDAFTRNFLRKIGVKVNPPVQCPEDPYMKIRREVVEHVEPLRPYESLDTLKQFLQYHGKILCFFCLWDDSVSMFGDRRELILHYFLCDDTIEIKELLPHSSGRDALKMFLRRSKLPKNCPPRVYQPGQITDRAVLNSYGDFIKNQADGYLFDRYKLGKVDQEFYKDSDLSLGVTINVWGRKVLLYDCDEFTKSYYKSKYGIENFTSVSCKPPSPPPKIERKFPPYNGFGSEEDSLRNCIDLKPTPHRRNFKKFMEKDSYGSKSNILRFFAKLVTDKCVDLDRMFVISYYLGDDTISVFEPIERNSGIAGGMFLKRSRVKKPGQEVFKSELSEYIKAEELYIGVTVNVNGYLFRLLNADEYTLNYMEQNTDKYPFSNLKLALQKLKQEEGKSRELKQVFKAADSKHTNMVDYNTFRDILMSLTVGNLAEQEFVTIARHYRVPEGTCSDMDFLIALAHEKFKKNMFENFDTFIYSCVYEDREKKNVLPTKDIKRLCKSSRLPLSDDLLESLLSRFEDSEKQIDYKSFFSALNWRKNPVPELQPASYLKERCEDVWLGMPSPIPAKYIDYWTFLKDAFGLEEE
# partner: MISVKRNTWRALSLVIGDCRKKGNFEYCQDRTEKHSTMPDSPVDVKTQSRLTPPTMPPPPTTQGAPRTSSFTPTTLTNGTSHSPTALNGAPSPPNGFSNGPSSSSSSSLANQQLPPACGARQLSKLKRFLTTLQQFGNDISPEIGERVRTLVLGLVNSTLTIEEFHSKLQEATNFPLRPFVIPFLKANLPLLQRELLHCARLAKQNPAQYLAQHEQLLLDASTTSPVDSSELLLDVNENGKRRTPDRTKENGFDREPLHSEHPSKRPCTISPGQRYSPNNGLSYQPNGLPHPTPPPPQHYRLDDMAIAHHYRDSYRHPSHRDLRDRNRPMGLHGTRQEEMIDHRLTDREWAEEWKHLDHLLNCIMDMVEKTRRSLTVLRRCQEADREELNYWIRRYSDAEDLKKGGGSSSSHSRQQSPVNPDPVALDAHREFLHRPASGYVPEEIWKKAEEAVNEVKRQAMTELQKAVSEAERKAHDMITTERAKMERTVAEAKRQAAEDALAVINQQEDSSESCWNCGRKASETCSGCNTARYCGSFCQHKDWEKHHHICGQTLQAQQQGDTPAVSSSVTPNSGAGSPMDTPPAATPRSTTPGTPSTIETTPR
# B3: Rho guanine nucleotide exchange factor 39 (Homo sapiens), Q8N4T4 (parent)
# chain: MELSCPGSRCPVQEQRARWERKRACTARELLETERRYQEQLGLVATYFLGILKAKGTLRPPERQALFGSWELIYGASQELLPYLEGGCWGQGLEGFCRHLELYNQFAANSERSQTTLQEQLKKNKGFRRFVRLQEGRPEFGGLQLQDLLPLPLQRLQQYENLVVALAENTGPNSPDHQQLTRAARLISETAQRVHTIGQKQKNDQHLRRVQALLSGRQAKGLTSGRWFLRQGWLLVVPPHGEPRPRMFFLFTDVLLMAKPRPPLHLLRSGTFACKALYPMAQCHLSRVFGHSGGPCGGLLSLSFPHEKLLLMSTDQEELSRWYHSLTWAISSQKN
# partner: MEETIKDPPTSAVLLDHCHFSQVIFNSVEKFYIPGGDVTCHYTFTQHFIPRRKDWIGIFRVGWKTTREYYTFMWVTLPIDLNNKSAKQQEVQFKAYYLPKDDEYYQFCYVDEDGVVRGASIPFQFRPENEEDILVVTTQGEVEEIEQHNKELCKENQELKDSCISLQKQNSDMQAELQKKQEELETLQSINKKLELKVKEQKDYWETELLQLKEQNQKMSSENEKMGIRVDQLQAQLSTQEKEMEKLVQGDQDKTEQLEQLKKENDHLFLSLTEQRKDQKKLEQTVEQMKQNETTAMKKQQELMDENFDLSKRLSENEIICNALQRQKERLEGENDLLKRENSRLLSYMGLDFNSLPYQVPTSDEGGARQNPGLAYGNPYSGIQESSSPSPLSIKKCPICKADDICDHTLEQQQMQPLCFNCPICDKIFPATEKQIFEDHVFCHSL
# B4: Dynein light chain 2, cytoplasmic (Homo sapiens), Q96FJ2 (parent)
# chain: MSDRKAVIKNADMSEDMQQDAVDCATQAMEKYNIEKDIAAYIKKEFDKKYNPTWHCIVGRNFGSYVTHETKHFIYFYLGQVAILLFKSG
# partner: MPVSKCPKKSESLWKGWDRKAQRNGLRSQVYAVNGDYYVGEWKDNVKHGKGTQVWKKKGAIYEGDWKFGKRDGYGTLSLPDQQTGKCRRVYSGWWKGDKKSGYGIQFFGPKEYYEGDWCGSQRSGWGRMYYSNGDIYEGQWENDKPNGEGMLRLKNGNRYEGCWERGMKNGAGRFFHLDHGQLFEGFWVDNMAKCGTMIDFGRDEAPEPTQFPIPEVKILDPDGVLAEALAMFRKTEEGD
# Variants of: B1
# Details: with bmal1_human BMAL1, O00327
# bmal1_human BMAL1, O00327, sequence (O00327 whole entry): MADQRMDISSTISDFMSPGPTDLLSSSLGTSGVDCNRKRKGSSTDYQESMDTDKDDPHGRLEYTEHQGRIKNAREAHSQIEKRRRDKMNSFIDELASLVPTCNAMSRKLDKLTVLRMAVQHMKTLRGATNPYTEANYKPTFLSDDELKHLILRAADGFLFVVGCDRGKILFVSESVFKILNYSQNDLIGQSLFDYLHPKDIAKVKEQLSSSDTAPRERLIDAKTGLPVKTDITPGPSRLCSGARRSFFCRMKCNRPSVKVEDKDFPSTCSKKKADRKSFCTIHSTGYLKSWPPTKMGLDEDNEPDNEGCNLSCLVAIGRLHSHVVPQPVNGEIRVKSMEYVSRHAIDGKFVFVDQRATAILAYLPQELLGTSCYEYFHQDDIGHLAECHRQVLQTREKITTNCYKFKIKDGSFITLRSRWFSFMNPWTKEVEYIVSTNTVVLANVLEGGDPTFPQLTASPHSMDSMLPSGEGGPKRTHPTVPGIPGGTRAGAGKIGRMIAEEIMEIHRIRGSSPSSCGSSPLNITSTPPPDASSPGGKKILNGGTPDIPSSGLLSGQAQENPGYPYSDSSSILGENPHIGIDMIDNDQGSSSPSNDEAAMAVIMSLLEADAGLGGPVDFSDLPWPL
row,Variant,effect of a mutation on the interaction
1,L395I,with no effect

# Variants of: B2
# Details: with mtg8_human RUNX1T1, Q06455
row,Variant,effect of a mutation on the interaction
1,V376I,with no effect

# Variants of: B2
# Details: with mtg8_human RUNX1T1, Q06455
# Remark: another data set of the same source
row,Variant,effect of a mutation on the interaction
1,N31S,disrupting interaction strength

# Variants of: B3
# Details: with caco2_human CALCOCO2, Q13137
row,Variant,effect of a mutation on the interaction
1,MELSCPGSRCPVQEQRARWERKRACTARELLETERRYQEQLGLVATYFLGILKAKGTLRPPERQALFGSWELIYGASQELLPYLEGGCWGQGLEGFCRHLELYNQFAANSERSQTTLQEQLKKNKGFRRFVRLQEGRPEFGGLQLQDLLPLPLQRLQQYENLVVALAENTGPNSPDHQQLTRAARLISETAQRVHTIGQKQKNDQHLRRVQALLSGRQAKGLTSGRWFLCQGWLLVVPPHGEPRPRMFFLFTDVLLMAKPRPPLHLLRSGTFACKALYPMAQCHLSRVFGHSGGPCGGLLSLSFPHEKLLLMSTDQEELSRWYHSLTWAISSQKN [R230C],with no effect
2,MELSCPGSRCPVQEQRARWERKRACTARELLETERRYQEQLGLVATYFLGILKAKGTLRPPERQALFGSWELIYGASQELLPYLEGGCWGQGLEGFCRHLELYNQFAANSERSQTTLQEQLKKNKGFRRFVRLQEGRPEFGGLQLQDLLPLPLQRLQQYENLVVALAENTGPNSPDHQQLTRAARLISETAQRVHTIGQKQKNNQHLRRVQALLSGRQAKGLTSGRWFLRQGWLLVVPPHGEPRPRMFFLFTDVLLMAKPRPPLHLLRSGTFACKALYPMAQCHLSRVFGHSGGPCGGLLSLSFPHEKLLLMSTDQEELSRWYHSLTWAISSQKN [D204N],with no effect

# Variants of: B4
# Details: with morn3_human MORN3, Q6PF18
row,Variant,effect of a mutation on the interaction
1,MSDRKAVIKNADMSEDMQQDAVDCATQAMEKYSIEKDIAAYIKKEFDKKYNPTWHCIVGRNFGSYVTHETKHFIYFYLGQVAILLFKSG,with no effect
